The values that follow come from patent US20260234738A1 (Regeneron, published 2026).

What all share (assay): Luminex beads, supernatant
Assay [1] deals with Bt-SARS-CoV-2 Spike Protein (RBD) (R319-F541).mFc (SARS-CoV-2).
The target in assay [2] is SARS-CoV-2 Spike Protein (RBD) (R319-F541).mFc (SARS-CoV-2).
In assay [3] the target is SARS-CoV-2 Spike Protein (RBD) (R319-F541).hFc (SARS-CoV-2).

B1: mAb10930 (antibody, V domains shown)
VH: EVQLVESGGGLVQPGRSLRLSCAASGFTFDDYAMYWVRQAPGKGLEWVSGISWNSGSIGYADSVKGRFTISRDNAKNSLYLQMNSLRAADTALYYCAKDKDWNSRGYYYYGMDVWGQGTTVTVSS
VL: not shown
As to B1, the figures for the MFI in assay [1], in assay [2] and in assay [3] were 16600 MFI, 28600 MFI and 28900 MFI, respectively.

B2: mAb10966 (antibody, V domains shown)
VH: EVQLVESGGGLVQPGGSLRLSCAASGLTVSSNYMSWVRQAPGKGLEWVSVIYSGGSTFYADSVKGRFTISRDNSKNTLYLQMNSLRPEDTAVYYCAREGRIAATGYGMDVWGQGTTVTVSS
VL: not shown
For B2, the MFI in assay [1] came out at 17900 MFI; in assay [2], 30400 MFI; in assay [3] it was 30800 MFI.

B3: mAb10964 (antibody, V domains shown)
VH: QVQLQESGPGLVKPSETLSLTCTVSGGSINNYYWIWIRQPPGKGLEWIGYIYHSGSTNYNPSLKSRVTISVDTSKNQFSLKVSSVTAADTAVYYCANMVRGVYEDDYWGQGTLVTVSS
VL: DIQMTQSPSSLSASVGDRVTITCRASQSISNYLNWYQQKPGKAPKLLIFAASSLRSGVPSRFSGSGSGTDFTLTISSLHPEDFATYYCQQNYNTPLTFGPGTKVDIKR
In the case of B3, the results for the MFI in assay [1], in assay [2] and in assay [3] were 19200 MFI, 32400 MFI and 33100 MFI, respectively.

B4: mAb10921 (antibody, V domains shown)
VH: EVQLVESGGGLVQPGGSLRLSCAASGITVSSNYMSWVRQAPGKGLEWVSVIYSGGSTFYADSVKGRFTISRHNSKNTLYLQMNSLRAEDTAVYYCARERNFDAFDIWGQGTMVTVSS
VL: DIQMTQSPSSVSASVGDRVTITCRASQGISSWLAWYQQKPGKAPKLLIYAASSLQSGVPSRFSGSGSGTDFTLTISSLQPEDFATYYCQQANSFPLFTFGPGTKVDIKR
With B4, the MFI came to 11300 MFI in assay [1], 19400 MFI in assay [2] and 22300 MFI in assay [3].

B5: mAb10938 (antibody, V domains shown)
VH: EVQLVESGGGLVQPGGSLRLSCAVSGFTVSSNYMSWVRQAPGKGLEWVSLIYSGGSTFYADSVKGRFTISRHNSKNTLYLQMNSLRAEDTAVYYCAREGGYSYDYNYWGQGTLVTVSS
VL: DIQMTQSPSSLSASVGDRVTITCQASQDIRNYLNWYQQKPGKAPKLLIYDASNLETGVPSRFSGIGSGTDFTFTISSLQPEDIATYYCQQYDNLPITFGQGTRLEIKR
B5: the MFI stood at 17200 MFI in assay [1], 30500 MFI in assay [2] and 29600 MFI in assay [3].

B6: mAb10967 (antibody, V domains shown)
VH: EVQLVESGGGLVQPGGSLRLSCAASGFTVSSNYMSWVRQAPGKGLEWVSVIYPGGSTFYADSVKGRFTISRDNSKNTLYLQMNSLRAEDTAVYYCARDQRDFAWGQGTLVTVSS
VL: DIQMTQSPSSLSASVGDRVTITCQASQDISNYLNWYQQKPGKAPKLLIYDASNLETGVPSRFSGSGSGTDFTFTISGLQPEDIATYYCQQYDNLPPTFGQGTRLEIKR
On to B6, for which the MFI was 16800 MFI in assay [1], 29600 MFI in assay [2] and 28700 MFI in assay [3].

B7: mAb10989 (antibody, V domains shown)
VH: QVQLVQSGAEVKKPGASVKVSCKASGYIFTGYYMHWVRQAPGQGLEWMGWINPNSGGANYAQKFQGRVTLTRDTSITTVYMELSRLRFDDTAVYYCARGSRYDWNQNNWFDPWGQGTLVTVSS
VL: QSALTQPASVSGSPGQSITISCTGTSSDVGTYNYVSWYQQHPGKAPKLMIFDVSNRPSGVSDRFSGSKSGNTASLTISGLQAEDEADYYCSSFTTSSTVVFGGGTKLTVLG
Regarding B7, the figures for the MFI in assay [1], in assay [2] and in assay [3] were 11200 MFI, 19600 MFI and 22400 MFI, respectively.

B8: mAb10971 (antibody, V domains shown)
VH: EVQLVESGGGLIQPGGSLRLSCAASGVTVSSNYMSWVRQAPGKGLEWVSVIYSGGSTFYSDSVKGRFSISRDNSKNTLYLQMNSLRAEDTAVYYCARDLYYYGMDVWGQGTTVTVSS
VL: DIQLTQSPSFLSASVGDRVTITCRASQGISTYLAWYQQKPGKAPKLLIYAASTLQSGVPSRFSGSGSGTEFTLTISSLQPEDFATYYCQQLDSYPGLTFGGGTKVEIKR
For B8, the figures for the MFI in assay [1], in assay [2] and in assay [3] were 16700 MFI, 28700 MFI and 30000 MFI, respectively.

B9: mAb10923 (antibody, V domains shown)
VH: QVQLVQSGAEVKKPGASVKVSCKASGYTFINYYIHWVRQAPGQGLEWMGWINPNSGGTNYAQKFQGRVTMTRDTSISTAYMELSRLRSDDTAVYYCAIITIFGVVTWFDPWGQGTLVTVSS
VL: not shown
In the case of B9, the MFI turned out to be 19600 MFI in assay [1], 37400 MFI in assay [2] and 37800 MFI in assay [3].

B10: mAb10965 (antibody, V domains shown)
VH: EVQLVESGGGLIQPGGSLRLSCAASVFTVSYNYMSWVRQAPGKGLEWVSVIYSGGSTYYADSVKGRFTISRDNSKNTLYLQMNSLRAEDTAVYYCARALPGWGGSFEYFDYWGQGTLVTVSS
VL: not shown
For B10, the MFI in assay [1] is 13700 MFI; in assay [2], 27100 MFI; in assay [3] it was 29600 MFI.

B11: mAb10982 (antibody, V domains shown)
VH: EVQLVESGGGLVQPGGSLRLSCAASGLTVSSNYMSWVRQAPGKGLEWVSVIYSGGTTYYADSVKGRFTISRHNSKNTLSLQMNSLRAEDTAVYYCARGEGANYYGMDVWGQGTTVTVSS
VL: QSVLTQPPSVSGAPGQRVTISCTGSSSNIGTGYDVHWYQQLPGTAPKLLIYGNSNRPSGVPDRFSGSKSGTSASLAITGLQAEDEADYYCQSYDSSLSGYVVFGGGTKLTVLG
B11: the results for the MFI in assay [1], in assay [2] and in assay [3] were 12300 MFI, 23300 MFI and 23000 MFI, respectively.

B12: mAb10985 (antibody, V domains shown)
VH: EVQLVESGGGLVQPGRSLRLSCAASGFTFDDYAMHWVRQAPGKGLEWVSGISWNRGSIGYADSVKGRFTISRDNAKNSLYLQMSSLRAEDTALYYCAKDGERWDSVVVPSARNGMDVWGQGTTVTVSS
VL: QSVLTQPPSVSGAPGQRVTISCTGSSSNIGAGYDVHWYQQLPGTAPKLLIYGNSNRPSGVPDRFSGSKSGTSASLAITGLQAEDEADYYCQSYDSSLSGSYVFGTGTKVTVLG
On to B12, for which the MFI in assay [1] worked out at 15500 MFI; in assay [2] it was 29400 MFI; in assay [3] it was 31100 MFI.

B13: mAb10939 (antibody, V domains shown)
VH: EVQLVESGGGLVQPGGSLRLSCAASGLTVSSNYMNWVRQVPGKGLEWVSVIYSGGSKFYVDSVKGRFTISRHNSKNTLYLQMNSLRPEDTAVYYCTRDAQYYGMDVWGQGTTVTVSS
VL: DIQMTQSPSSLSASVGDRVTITCRASQSISTYLHWYQQKPGEAPKLLIYAASSLQSGVPSRFSGSGSGTDFTLTISSLQPEDFATYYCQQSYSTPPEIFGQGTKLEIKR
B13: the MFI in assay [1] was 18700 MFI; in assay [2] it was 33900 MFI; in assay [3], 32900 MFI.

B14: mAb10984 (antibody, V domains shown)
VH: EVQLVESGGGLVQPGGSLRLSCAASGLTVNRNYMSWVRQAPGKGLEWVSLIYSGGSTYYADSVKGRFTISRDNSKNTLYLQMNSLRLEDTAVYYCARGELGIPYGMDVWGQGTTVTVSS
VL: QSVLTQPPSVSAAPGQKVTISCSGSSSNIGNNYVSWYQQLPGTAPKLLIYDNNKRPSGIPDRFSGSKSGTSATLGITGLQTGDEADYYCGTWDSSLSAGVFGGGTKLTVLG
As to B14, the figures for the MFI in assay [1], in assay [2] and in assay [3] were 17100 MFI, 28400 MFI and 28400 MFI, respectively.
